According to the supplement of paper PMC10126150:
± gives the standard deviation of the averaged measurements.

Test system: ATP
Experiment: switch fluorescence ratio, 500 uM ATP over buffer (Cy3 cluster intensity, sum of 5 cycles each) (fold (ratio)); higher = stronger signal-on switching upon ATP binding; sequences stand for … in TCGTCGGCAGCGTCAGATGTGTATAAGAGACAGTTTTTTTTTTTTTTTTTTTTTTTTT…TC
Conditions: aptamer strand: ATP DNA aptamer (quencher-CACCTGGGGGAGTATTGCGGAGGAAGG + anchor), 100 nM annealed; ATP concentration: 500 uM
Method in brief: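 Cy3-labelled switching-strand clusters on a modified Illumina MiSeq flow-cell were annealed to 100 nM quencher-labelled ATP aptamer, imaged in selection buffer, then imaged after 15 min with 500 uM ATP at 22 °C. Five buffer/ATP cycles ran, with NaOH stripping and re-annealing between them. The fluorescence ratio is summed target-cycle over summed buffer-cycle Cy3 intensity per cluster, averaged per switch-domain sequence. Clusters outside 100-1000 RFU were excluded.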
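Also: ATP exposure 15 min at 22 °C before imaging.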

Sequence	switch fluorescence ratio
GAGGCAGCGA	1.3 ± 0.016
ATTCAGGGCT	1.01 ± 0.013
TTTTTCTTCA	1 ± 0.011
TTCAGAAGCG	1.01 ± 0.028
TTGGGGCGTT	0.993 ± 0.057
TAAAAGACCG	1.077 ± 0.007
GGGTAATTAT	1.01 ± 0.036
GATAGGTGGT	0.9691 ± 0.0046
AGGCGGGCGG	0.959 ± 0.019
GCTACGGGTA	1.08 ± 0.031
AGGATCGGGG	1.01 ± 0.013
TTTATGGGG	0.965 ± 0.08
TGACATTGTA	1.01 ± 0.072
CTTCTGTGGC	1.071 ± 0.0073
AGGGCGACAG	1.01 ± 0.012
TATAATGTGC	1.04 ± 0.012
AAGGTATTTT	1.01 ± 0.037
TTGGAATTCT	1.04 ± 0.081
TTAAAGGGGA	1.04 ± 0.049
TATAGGATTT	1 ± 0.08
TCATCTAGGA	0.985 ± 0.011
AATTCGGATG	1.02 ± 0.034
TTGTTTTGCA	0.971 ± 0.018
TTGGGAGCGG	0.9769 ± 0.0038
GATTAGGGGT	0.99655 ± 0.00059

Sequence	switch fluorescence ratio
ATTCATTCAG	0.9865 ± 0.0047
CCTTTGGAAT	1.16 ± 0.031
CTGGAATGTG	1.003 ± 0.01
TTTTATGTG	1.01 ± 0.021
CCGGACTTGG	0.96 ± 0.09
TAGGGTGTGT	0.952 ± 0.016
ATGTTGATCC	1.03 ± 0.03
GAGGTTTTTG	0.994 ± 0.032
GCAAGGAGGA	0.996 ± 0.014
TGGTTAGATT	0.996 ± 0.034
AGCGGGGCGG	1.02 ± 0.017
TTGATTGGCC	0.958 ± 0.018
CGCCGTGTCG	0.927 ± 0.049
ATAGCGCCG	1.03 ± 0.035
TTAAAGGTTT	1.01 ± 0.018
CATCAGGAGG	0.961 ± 0.035
AAGAGAAGCC	1.02 ± 0.078
GTGTCCGGTA	0.983 ± 0.037
AAGAAAGACT	1.02 ± 0.013
TAGATTCTGA	1.01 ± 0.032
TTGGGTAGCA	0.9968 ± 0.0098
TGACACAGTA	1.26 ± 0.21
CGGATTTAAG	0.9979 ± 0.0066
GGGGTTCGTG	0.975 ± 0.041
TTCTCGTACA	1.19 ± 0.29

Sequence	switch fluorescence ratio
TTTTGTTGAG	1 ± 0.035
TTTTATATGG	0.986 ± 0.021
GGATTTACGC	1.03 ± 0.03
TAAATGCGCC	1.09 ± 0.022
GCCAACCACT	1.03 ± 0.025
TTGTGGAAAT	1 ± 0.069
CGAAGGGATG	0.982 ± 0.031
TTTGGGCCGT	0.971 ± 0.043
TTGCTGTACG	1.04 ± 0.021
TGAGACAAGC	1.05 ± 0.012
TACGGATTGT	0.988 ± 0.027
AAGTGGTGGT	0.989 ± 0.011
GGGTATGCAT	0.973 ± 0.011
TTTTTAATTC	1.03 ± 0.024
GGGATTTGTT	0.9888 ± 0.0057
ACCGGGAGGT	1.01 ± 0.049
AATGATATTG	0.998 ± 0.032
TTTAATAAAA	0.988 ± 0.013
ATAATTATGC	1.025 ± 0.0052
AAAGATATC	0.984 ± 0.02
TACTGGGGTT	0.981 ± 0.031
ATGTTAGTTG	0.965 ± 0.041
ATGAAGTCGC	1.01 ± 0.025
TCCTGTGCTG	1.09 ± 0.043
CGGTTGTTGA	1.01 ± 0.031

Sequence	switch fluorescence ratio
TTTTCATGCC	1.09 ± 0.056
ACATACGAAC	1.38 ± 0.098
AAATTGTATT	1 ± 0.024
TGGTGTTTGT	0.983 ± 0.029
TGGAGTTACT	0.994 ± 0.061
TTTGTTAAG	1.02 ± 0.018
GTATGGGACG	1.003 ± 0.006
TGGATATGAT	0.998 ± 0.0028
TTTCCGGGAC	1.41 ± 0.066
CGAAGGGGGG	1.03 ± 0.087
GTTCGAAGGG	0.987 ± 0.013
CGGATAGTGC	1.07 ± 0.11
GGAGGGGTTA	0.978 ± 0.015
AGCTGGAATA	1 ± 0.06
TTATACGTAG	1.03 ± 0.019
GGAAGAGGGT	0.997 ± 0.052
ACTTATAGGA	1.03 ± 0.012
AAAGCAGTAT	1.14 ± 0.068
TGTTGCTTCG	1.03 ± 0.042
GAGTATGAAG	1.01 ± 0.031
TTTGACCTGT	0.991 ± 0.013
TGGATGCGGG	1.02 ± 0.032
GTCATTTTTG	1.02 ± 0.025
TTTGGTCGGG	1.01 ± 0.03
GCTCGTAGGC	0.99 ± 0.054
